The term IC50 denotes the concentration that inhibits the measured activity by half. Low readings indicate inhibition by little substance, high ones a need for much substance.

The values below come from patent US20180237756.

Series [1] concerns the target T1, TgoT DNA polymerase (V93Q D141A E143A A485L) (Thermococcus gorgonarius) (UniProt P56689).
T1 sequence: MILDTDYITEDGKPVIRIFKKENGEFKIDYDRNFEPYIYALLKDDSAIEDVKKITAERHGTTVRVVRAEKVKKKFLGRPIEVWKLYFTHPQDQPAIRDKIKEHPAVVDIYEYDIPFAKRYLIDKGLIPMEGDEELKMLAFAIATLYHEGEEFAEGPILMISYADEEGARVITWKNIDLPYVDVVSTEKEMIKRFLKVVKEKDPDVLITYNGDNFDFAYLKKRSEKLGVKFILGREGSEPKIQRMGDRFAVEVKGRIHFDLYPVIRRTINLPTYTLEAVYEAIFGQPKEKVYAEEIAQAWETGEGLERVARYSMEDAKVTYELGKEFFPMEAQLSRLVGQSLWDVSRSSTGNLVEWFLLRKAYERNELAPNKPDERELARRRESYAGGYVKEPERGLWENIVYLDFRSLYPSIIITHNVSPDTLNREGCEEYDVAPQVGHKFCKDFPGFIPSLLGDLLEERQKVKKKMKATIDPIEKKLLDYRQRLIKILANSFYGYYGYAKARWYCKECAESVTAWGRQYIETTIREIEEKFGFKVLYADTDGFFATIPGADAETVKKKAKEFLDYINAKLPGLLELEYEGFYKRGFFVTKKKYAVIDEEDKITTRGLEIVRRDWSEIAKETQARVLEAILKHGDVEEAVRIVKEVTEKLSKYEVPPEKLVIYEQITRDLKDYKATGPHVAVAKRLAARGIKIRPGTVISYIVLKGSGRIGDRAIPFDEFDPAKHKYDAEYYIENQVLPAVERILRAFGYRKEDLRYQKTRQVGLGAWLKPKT
As to conditions: does not synthesise HNA much beyond six incorporations.

Series [2] has as its system TAT (trans-activator of transcription) (HIV). Nature of the series: competition.

In series [1], E. coli tRNA supE gene primer-template came in with an activity (hNTP incorporations) of 6.

miniTAR RNA: the IC50 was found to be 1.9 nM in series [2] (IC50 of HNA anti-TAR aptamer T5S8-7 (binds TAR RNA) displacing TAT from immobilized miniTAR, CI95 1.3-2.8 nM) and 313 nM in series [2] (IC50 of RNA anti-TAR aptamer R06 (binds TAR RNA) displacing TAT from immobilized miniTAR, CI95 166-675 nM).
